The values below come from patent US20230095004 (Aptitude Medical Systems, Inc., published 2023).

Numbering of substitutions follows the chain as printed.

Data set [1] concerns the target T1, VEGF-165 (VEGF-A) (Homo sapiens).
T1 chain: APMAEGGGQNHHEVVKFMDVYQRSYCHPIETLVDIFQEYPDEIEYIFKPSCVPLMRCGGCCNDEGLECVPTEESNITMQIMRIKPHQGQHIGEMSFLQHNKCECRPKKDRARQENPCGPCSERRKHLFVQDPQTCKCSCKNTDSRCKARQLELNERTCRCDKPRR
Kind of data set: flow; PBSMCT, 37 C. The settings on record: tags: recombinant; chain copies: 2; label: biotin.

For the next data set, the target named is VEGF-121 (VEGF-A) (Homo sapiens, UniProt P15692 SEQ:1-121). Kind of data set: flow; PBSMCT, 37 C. The settings on record: tags: recombinant; chain copies: 2; label: biotin.
The target of the next data set is Angiopoietin-2 (Ang2) (Homo sapiens, UniProt O15123 O15123:19-496). Description: flow. The settings on record: tags: His tag; R&D Systems 623-AN.
Sequence of Angiopoietin-2 (Ang2) (O15123 19-496, one chain of several): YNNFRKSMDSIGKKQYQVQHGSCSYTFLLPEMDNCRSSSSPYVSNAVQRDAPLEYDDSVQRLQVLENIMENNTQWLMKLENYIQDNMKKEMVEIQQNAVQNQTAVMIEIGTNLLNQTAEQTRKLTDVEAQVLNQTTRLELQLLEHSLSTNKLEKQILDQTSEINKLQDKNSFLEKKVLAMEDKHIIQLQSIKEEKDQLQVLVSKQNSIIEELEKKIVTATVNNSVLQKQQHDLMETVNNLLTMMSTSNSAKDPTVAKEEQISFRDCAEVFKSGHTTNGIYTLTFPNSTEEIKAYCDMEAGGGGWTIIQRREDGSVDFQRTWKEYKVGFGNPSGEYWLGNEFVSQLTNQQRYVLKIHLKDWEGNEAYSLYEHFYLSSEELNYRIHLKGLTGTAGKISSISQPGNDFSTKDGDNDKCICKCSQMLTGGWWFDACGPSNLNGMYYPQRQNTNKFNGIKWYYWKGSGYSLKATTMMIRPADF
Data set [2] concerns the target T1, VEGF-165 (VEGF-A). Kind of data set: flow. The settings on record: tags: recombinant; chain copies: 2.

The Kd is the free concentration of one partner at which half of the binding sites on the other are occupied at equilibrium, for simple one-to-one binding. Take CUGUACAGUUUUACCAGUGAGUCGGAUCUCCGCAUAUCUGCG (ssRNA, 2'-F all nucleotides) [AMS0433.19]: the values for the Kd in the data set with VEGF-165 (VEGF-A) [1] and with VEGF-121 (VEGF-A) were 0.097 nM and 0.162 nM, respectively.

B1: AMSB107.8 (ssRNA)
RNA: UUUUGCAUGCAUUUUACCAGUGAGUCGGAUCUCCGCAUAGAUAAGCCAACAAACGUACAUUCUCUGUUAGUAUUUUCUGCG
modifications: 2'-F all nucleotides
In the case of B1, the Kd is 0.095 nM with Angiopoietin-2 (Ang2) and 0.048 nM with VEGF-165 (VEGF-A) [2].

B2: AMS0433.13 (ssRNA)
RNA: UUUUGUGCUUGCGUAGCAACCCUCCAGUGAGUCGGAUCUCCGCAUAUCUGCG
modifications: 2'-F all nucleotides
As to B2, the Kd worked out at 8.3 nM with VEGF-165 (VEGF-A) [1] and 9.47 nM with VEGF-121 (VEGF-A).

B3: AMSB107 (ssRNA)
RNA: UGCAUGCAUUUUACCAGUGAGUCGGAUCUCCGCAUAGAUAAGCCAACAAACGUACAUUCUCUGUUAGUAUUUUCUGCG
modifications: 2'-F all nucleotides
Consider B3, for which the Kd with Angiopoietin-2 (Ang2) turned out to be 0.087 nM; with VEGF-165 (VEGF-A) [2] it was 0.054 nM.

B4: AMSB107.19 (ssRNA)
RNA: B3 RNA
modifications: 2'-F; LNA at selected positions of the VEGF consensus as printed
On to B4, for which binding in the data set with Angiopoietin-2 (Ang2) was put at a Kd of 0.083 nM.

B5: AMSB107.18 (ssRNA)
RNA: B3 RNA
modifications: 2'-F; LNA at selected positions of the VEGF consensus as printed
For the molecule B5, the Kd with Angiopoietin-2 (Ang2) was 0.079 nM; with VEGF-165 (VEGF-A) [2], 0.608 nM.

B6: AMSB107.20 (ssRNA)
RNA: B3 RNA
modifications: 2'-F; LNA in stem nucleotides as printed
For B6, the Kd with Angiopoietin-2 (Ang2) was found to be 0.253 nM; in the data set with VEGF-165 (VEGF-A) [2], 0.234 nM.

B7: AMSB107.21 (ssRNA)
RNA: B3 RNA
modifications: 2'-F; 2'-OMe in stem nucleotides (5' UGCAUGCA, internal CGCA, 3' UGCG)
In the case of B7, the Kd is 0.083 nM with Angiopoietin-2 (Ang2) and 0.052 nM in the data set with VEGF-165 (VEGF-A) [2].

B8: AMSB107.12 (ssRNA)
RNA: B3 RNA with U1C, G2U, C3G, A4U, U5A, G6C, C7A, A8G
modifications: 2'-F all nucleotides
B8: the Kd with Angiopoietin-2 (Ang2) came out at 0.227 nM; with VEGF-165 (VEGF-A) [2] it was 0.606 nM.

Regarding CCCCAUCUGCGAAGCAGUCAGCCAGUGAGUCGGAUCUCCGCAUAUCUGCG (ssRNA, 2'-F all nucleotides) [AMS0433.6], the Kd with VEGF-165 (VEGF-A) [1] worked out at 0.674 nM; in the data set with VEGF-121 (VEGF-A), 0.898 nM.

B9: AMSB107.0 (ssRNA)
RNA: ACCCUUGCUUGCGUAGCAUUUUACCAGUGAGUCGGAUCUCCGCAUAGAUAAGCCAACAAACGUACAUUCUCUGUUAGUAUUUUCUGCG
modifications: 2'-F all nucleotides
For the molecule B9, the values for the Kd with Angiopoietin-2 (Ang2) and with VEGF-165 (VEGF-A) [2] were 0.222 nM and 1.29 nM, respectively.

B10: AMSB107.5 (ssRNA)
RNA: AUGCAUGCAUUUUUACCAGUGAGUCGGAUCUCCGCAUAGAUAAGCCAACAAACGUACAUUCUCUGUUAGUAUUUUCUGCG
modifications: 2'-F all nucleotides
Regarding B10, the Kd with Angiopoietin-2 (Ang2) was 0.096 nM; with VEGF-165 (VEGF-A) [2], 0.052 nM.

B11: AMSB107.17 (ssRNA)
RNA: B10 RNA with A1G, U2C, G3U, C4G, A5U, U6A, G7C, C8A, A9G, U10C
modifications: 2'-F all nucleotides
As to B11, the Kd came out at 0.086 nM with Angiopoietin-2 (Ang2) and 0.198 nM with VEGF-165 (VEGF-A) [2].

B12: AMSB107.15 (ssRNA)
RNA: B10 RNA with A1U, U2G, G3C, C4A, A5U, U6C, G7U, C8G, A9C, U10A
modifications: 2'-F all nucleotides
On to B12, for which the Kd stood at 0.778 nM in the data set with Angiopoietin-2 (Ang2) and 0.765 nM with VEGF-165 (VEGF-A) [2].

B13: AMSB107.13 (ssRNA)
RNA: B10 RNA with A1C, U2C, C4G, A5U, U6A, G7C, A9G, U10G
modifications: 2'-F all nucleotides
On to B13, for which the results for the Kd in the data set with Angiopoietin-2 (Ang2) and in the data set with VEGF-165 (VEGF-A) [2] were 0.089 nM and 0.05 nM, respectively.

B14: AMSB107.10 (ssRNA)
RNA: B10 RNA with A1U, U2G, G3C, C4A, A5U, U6G, G7C, C8A, A9U
modifications: 2'-F all nucleotides
B14: the Kd with Angiopoietin-2 (Ang2) was 0.089 nM; with VEGF-165 (VEGF-A) [2], 0.051 nM.

For UGCCAGUGAGUCGGAUCUCCGCAUAUCUGCGCGCAUAUCUGCG (ssRNA, 2'-F all nucleotides) [AMS0433.2], the Kd with VEGF-165 (VEGF-A) [1] amounted to 8.42 nM; in the data set with VEGF-121 (VEGF-A), 11.4 nM.

B15: AMSB107.1 (ssRNA)
RNA: UGCCAGUGAGUCGGAUCUCCGCAUAGAUAAGCCAACAAACGUACAUUCUCUGUUAGUAUUUUCUGCG
modifications: 2'-F all nucleotides
Regarding B15, the values for the Kd in the data set with Angiopoietin-2 (Ang2) and with VEGF-165 (VEGF-A) [2] were 0.885 nM and 13.9 nM, respectively.

Take UGCCAGUGAGUCGGAUCUCCUGUGAGAACACAG (ssRNA, 2'-F all nucleotides) [AMS0433.10]: the Kd turned out to be 8.47 nM with VEGF-165 (VEGF-A) [1] and 11.4 nM in the data set with VEGF-121 (VEGF-A).

B16: AMSB107.2 (ssRNA)
RNA: UGCCAGUGAGUCGGAUCUCCACAGUAGAUAAGCCAACAAACGUACAUUCUCUGUUAGUAUUUUCCUGUG
modifications: 2'-F all nucleotides
B16: the Kd was 0.82 nM with Angiopoietin-2 (Ang2) and 12.9 nM in the data set with VEGF-165 (VEGF-A) [2].

B17: AMS0433.1 (ssRNA)
RNA: ACCCUUGCUUGCGUAGCAUUUUACCAGUGAGUCGGAUCUCCGCAUAUCUGCG
modifications: 2'-F all nucleotides
Consider B17, for which the Kd was 0.666 nM with VEGF-165 (VEGF-A) [1] and 1.12 nM with VEGF-121 (VEGF-A).

B18: AMSB107.14 (ssRNA)
RNA: UGCACUGCAUUUUACCAGUGAGUCGGAUCUCCGCAUAGAUAAGCCAACAAACGUACAUUCUCUGUUAGUAUUUUCUGCG
modifications: 2'-F all nucleotides
For the molecule B18, the Kd with Angiopoietin-2 (Ang2) amounted to 0.928 nM; with VEGF-165 (VEGF-A) [2], 0.643 nM.

B19: AMSB107.16 (ssRNA)
RNA: UGCAUGCAUUUUACCAGUGAGUCGGAUCUCUUUCGCAUAGAUAAGCCAACAAACGUACAUUCUCUGUUAGUAUUUUCUGCG
modifications: 2'-F all nucleotides
In the data set with Angiopoietin-2 (Ang2), B19 came in with a Kd of 0.08 nM.

On to ACCCUUGCUUGCGUAGCAUUUUACCAGUGAGUCGGAUCUCUGCAUGCA (ssRNA, 2'-F all nucleotides) [AMS0433.15], for which the Kd with VEGF-165 (VEGF-A) [1] worked out at 7.34 nM; with VEGF-121 (VEGF-A), 9 nM.

B20: AMSB107.4 (ssRNA)
RNA: GCAUGCUUUUACCAGUGAGUCGGAUCUCCGCAUAGAUAAGCCAACAAACGUACAUUCUCUGUUAGUAUUUUCUGCG
modifications: 2'-F all nucleotides
For the molecule B20, the Kd turned out to be 0.237 nM in the data set with Angiopoietin-2 (Ang2) and 0.225 nM with VEGF-165 (VEGF-A) [2].

B21: AMSB107.9 (ssRNA)
RNA: B20 RNA with G1U, C2G, A3C, U4A, G5U, C6G, U7C, U8A
modifications: 2'-F all nucleotides
For the molecule B21, the Kd in the data set with Angiopoietin-2 (Ang2) turned out to be 0.15 nM; in the data set with VEGF-165 (VEGF-A) [2], 0.151 nM.

In the case of UGCAUCUGCAUUUUACCAGUGAGUCGGAUCUCCGCAUAUCUGCG (ssRNA, 2'-F all nucleotides) [AMS0433.18], the results for the Kd with VEGF-165 (VEGF-A) [1] and with VEGF-121 (VEGF-A) were 3.81 nM and 5.73 nM, respectively.

B22: AMSB108.0 (ssRNA)
RNA: CGCAUAGAUAAGCCAACAAACGUACAUUCUCUGUUAGUAUUUUCUGCGUGCCAGUGAGUCGGAUCUCCACAGUUCUCUGUG
modifications: 2'-F all nucleotides
B22: the results for the Kd in the data set with Angiopoietin-2 (Ang2) and with VEGF-165 (VEGF-A) [2] were 0.52 nM and 15.7 nM, respectively.

On to UUUUACCAGUGAGUCGGAUCUCUGCAUGCA (ssRNA, 2'-F all nucleotides) [AMS0433.16], for which the Kd came to 6.65 nM with VEGF-165 (VEGF-A) [1] and 10.4 nM in the data set with VEGF-121 (VEGF-A).

B23: AMS0433.5 (ssRNA)
RNA: CACCAUGCUUGCGUAGCAUCAUCCAGUGAGUCGGAUCUCCGCAUAUCUGCG
modifications: 2'-F all nucleotides
Regarding B23, the Kd was determined as 0.739 nM with VEGF-165 (VEGF-A) [1] and 1.19 nM with VEGF-121 (VEGF-A).

B24: AMSB107.11 (ssRNA)
RNA: UGCAUGCAUUUUCCAGUGAGUCGGAUCUCCGCAUAGAUAAGCCAACAAACGUACAUUCUCUGUUAGUAUUUUCUGCG
modifications: 2'-F all nucleotides
Turning to B24, the Kd turned out to be 0.095 nM with Angiopoietin-2 (Ang2) and 0.057 nM in the data set with VEGF-165 (VEGF-A) [2].

B25: AMSB107.7 (ssRNA)
RNA: UGCAUGCACAGUGAGUCGGAUCUCCGCAUAGAUAAGCCAACAAACGUACAUUCUCUGUUAGUAUUUUCUGCG
modifications: 2'-F all nucleotides
The molecule B25 showed a Kd in the data set with Angiopoietin-2 (Ang2) of 0.085 nM.

B26: AMS0433.11 (ssRNA)
RNA: CACAGAGAACUGUGCCUAGCAUUUUGCCAGUGAGUCGGAUCUCCGCAUAUCUGCG
modifications: 2'-F all nucleotides
For B26, the dissociation constant Kd with VEGF-165 (VEGF-A) [1] is 16.4 nM; in the data set with VEGF-121 (VEGF-A) it was 23.2 nM.

As for UUUUGCAUGCAUUUUACCAGUGAGUCGGAUCUCCGCAUAUCUGCG (ssRNA, 2'-F all nucleotides) [AMS0433.20], the Kd in the data set with VEGF-165 (VEGF-A) [1] turned out to be 0.039 nM; with VEGF-121 (VEGF-A), 0.045 nM.

CACAGAGAACUGUGUGCCAGUGAGUCGGAUCUCCGCAUAUCUGCG (ssRNA, 2'-F all nucleotides) [AMS0433.7]: the Kd with VEGF-165 (VEGF-A) [1] turned out to be 9.76 nM; with VEGF-121 (VEGF-A), 13.8 nM.

For the molecule UGCACUGCAUUUUACCAGUGAGUCGGAUCUCCGCAUAUCUGCG (ssRNA, 2'-F all nucleotides) [AMS0433.17], the Kd stood at 0.359 nM with VEGF-165 (VEGF-A) [1] and 0.475 nM in the data set with VEGF-121 (VEGF-A).

B27: AMSB107.6 (ssRNA)
RNA: UGCAUGCAACCAGUGAGUCGGAUCUCCGCAUAGAUAAGCCAACAAACGUACAUUCUCUGUUAGUAUUUUCUGCG
modifications: 2'-F all nucleotides
As to B27, the figures for the Kd with Angiopoietin-2 (Ang2) and in the data set with VEGF-165 (VEGF-A) [2] were 0.074 nM and 2.34 nM, respectively.

Take CGUAGCAUUUUGCCAGUGAGUCGGAUCUCCGCAUAUCUGCG (ssRNA, 2'-F all nucleotides) [AMS0433.8]: the figures for the Kd with VEGF-165 (VEGF-A) [1] and with VEGF-121 (VEGF-A) were 8.2 nM and 11 nM, respectively.
